Experimental data reported in US20100150950A1, “HUMAN ANTIBODIES THAT BIND CD70 AND USES THEREOF” (Medarex, Inc., priority 2006, published 2010).
Changes are numbered by the printed parent chain.

B1: anti-CD70 human monoclonal antibody 69A7 (antibody, V domains shown)
VH: QVQLQESGPGLVKPSETLSLTCTVSGGSVSSDYYYWSWIRQPPGKGLEWLGYIYYSGSTNYNPSLKSRVTISVDTSKNQFSLKLRSVTTADTAVYYCARGDGDYGGNCFDYWGQGTLVTVSS
VL: EIVLTQSPATLSLSPGERATLSCRASQSVSSYLAWYQQKPGQAPRLLIFDASNRATGIPARFSGSGSGTDFTLTISSLEPEDFAVYYCQQRSNWPLTFGGGTKVEIK
notes: Human IgG from hybridoma; also called HuMAb 69A7; FITC-conjugated 69A7
B2: 2H5 NF: 2H5 HuMAb lacking fucosyl residues, expressed in CHO cell line Ms704-PF (antibody, V domains shown)
VH: QVQLVESGGGVVQPGRSLRLSCAASGFTFSSYIMHWVRQAPGKGLEWVAVISYDGRNKYYADSVKGRFTISRDNSKNTLYLQMNSLRAEDTAVYYCARDTDGYDFDYWGQGTLVTVSS
VL: B1 VL with F49Y, S92T

Molecular target: T1, CD70 expressed on the surface of 786-O renal cell carcinoma cells (Homo sapiens, UniProt P32970)
T1 construct: natively expressing CD70+ human cancer cell line 786-0 cells; endogenous in cells; host or cells: 786-O (ATCC CRL-1932), A-498 (HTB-44), ACHN (CRL-1611), Caki-1 (HTB-46), Caki-2 (HTB-47)
T1 sequence (P32970 1-193): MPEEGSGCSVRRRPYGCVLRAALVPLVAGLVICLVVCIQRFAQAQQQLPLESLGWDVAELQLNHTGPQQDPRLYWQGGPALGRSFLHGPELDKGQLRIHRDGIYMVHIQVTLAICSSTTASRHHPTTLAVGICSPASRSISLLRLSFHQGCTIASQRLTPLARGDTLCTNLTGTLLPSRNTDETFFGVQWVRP
Experiment: Flow cytometry binding to 786-O cells
Experimental: Anti-CD70 antibodies were tested for binding to renal cell carcinoma cells expressing CD70 on their cell surface by flow cytometry.
The renal cell carcinoma cell lines A-498 (ATCC Accession No. HTB-44), 786-O (ATCC Accession No. CRL-1932), ACHN (ATCC Accession No. CRL-1611), Caki-1 (ATCC Accession No. HTB-46) and Caki-2 (ATCC Accession No. HTB-47) were each tested for antibody binding. Binding of the HuMAb 2H5 anti-CD70 human monoclonal antibody was assessed by incubating 1×10^5 cells with 2H5 at a concentration of 1 μg/ml. The cells were washed and binding was detected with a FITC-labeled anti-human IgG Ab. Flow cytometric analyses were performed using a FACSCalibur flow cytometry (Becton Dickinson, San Jose, Calif.). The anti-CD70 monoclonal antibody 2H5 bound to the renal carcinoma cell lines A-498, 786-O, ACHN, Caki-1 and Caki-2.
The renal cell carcinoma cell lines 786-O and A-498 were tested for binding of the HuMAb anti-CD70 human monoclonal antibodies 2H5, 8B5, 10B4 and 18E7 at different concentrations. Binding of the anti-CD70 human monoclonal antibodies was assessed by incubating 5×10^5 cells with antibody at a starting concentration of 50 μg/ml and serially diluting the antibody at a 1:3 dilution. The cells were washed and binding was detected with a PE-labeled anti-human IgG Ab. Flow cytometric analyses were performed using a FACSCalibur flow cytometry (Becton Dickinson, San Jose, Calif.). The results are shown in FIG. 18A (786-O) and FIG. 18B (A-498). […]
Binding of the HuMAb 2H5 and 69A7 anti-CD70 human monoclonal antibodies to the renal cell carcinoma cell line 786-O was assessed by incubating 2×10^5 cells with either 2H5 or 69A7 at a concentration of 10 μg/ml. […] The cells were washed and binding was detected with a FITC-labeled anti-human IgG Ab. […]
The renal cell carcinoma cell line 786-O was tested for binding of the HuMAb anti-CD70 human monoclonal antibody 69A7 at different concentrations. Binding of the anti-CD70 human monoclonal antibodies was assessed by incubating 5×10^5 cells with antibody at a starting concentration of 10 μg/ml and serially diluting the antibody at a 1:3 dilution. The cells were washed and binding was detected with a PE-labeled anti-human IgG Ab. […]
The Daudi lymphoma cell line and 786-O renal carcinoma cell were further tested for antibody binding. Binding of the HuMAb 69A7 anti-CD70 human monoclonal antibody was assessed by incubating 2×10^5 cells with 69A7 at a concentration of 1 μg/ml. The cells were washed and binding was detected with a FITC-labeled anti-human IgG Ab. […] The anti-CD70 monoclonal antibody 69A7 bound to the Daudi lymphoma cell line and 786-O renal carcinoma cell line, as measured by the mean fluorescent intensity (MFI) of staining. […]

Molecule	binding to 786-O at different concentrations (MFI) (1:3 serial dilution from 50 μg/ml (69A7: from 10 μg/ml))	binding to 786-O cells (antibody 1 μg/ml, FITC-labeled anti-human IgG)	binding to 786-O cells (antibody 10 μg/ml)	relative binding to 786-0 cells (30 to 0.01 ug/ml, flow cytometry)
B1	concentration dependent	bound	bound	
B2				binds at lower concentration than 1F4 and 1F4 NF
